B1: LINE1-full (parent)
chain: UACGUAGGUGGUUUUCCCCUGAUAGUGCUAAGGGGGCCUGGAAGUUUGGACUGGGCAGAGCUCAACACAGCGUGGCAAAGUGGCUGUGGCUAGACUGCCUCUCUGGAUUCCUCGUCACUCAGCAGGGCAUCUCUGAGAGAAAUGCC

Variants of B1 are the subject of this data set. Nature of the data set: self-cleavage, relative activity (ratio to wild type); higher = more cleavage; in vitro, sequencing; the parent is a self-cleaving ribozyme.
Take U23A U87A: the self-cleavage was determined as 0.09.

With A22U G93A, the self-cleavage amounted to 0.07.

With U23C C120U, the self-cleavage stood at 0.55.

Take A24C U109A: the self-cleavage was found to be 2.55.

With A22G G137A, the self-cleavage stood at 1.52.

For A24C A77G, the self-cleavage was 2.76.

With A22G C123U, the self-cleavage was 0.99.

As for A22U U46C, the self-cleavage stood at 1.34.

On to U23A U102C, for which the self-cleavage was 2.11.

As to U23A U102A, the self-cleavage was found to be 1.18.

Take U23C A140C: the self-cleavage turned out to be 1.35.

Consider U23C A140G, for which the self-cleavage is 1.28.

As for U23C A140U, the self-cleavage was 1.29.

Turning to A22U U45A, the self-cleavage was found to be 0.83.

For A24G U102A, the self-cleavage came out at 1.15.

As to A24G U102C, the self-cleavage was found to be 1.73.

As to A24G U102G, the self-cleavage worked out at 0.54.

On to A24G G93A, for which the self-cleavage was found to be 0.13.

In the case of U23C U47A, the self-cleavage was found to be 1.9.

As for A24G U100C, the self-cleavage was found to be 1.32.

With U23A U132C, the self-cleavage is 0.33.

As to A24G G53U, the self-cleavage worked out at 1.03.

Take A24G C116U: the self-cleavage came to 0.65.

For U23A U46G, the self-cleavage turned out to be 0.35.

For U23A U46C, the self-cleavage is 1.57.

Turning to A22U G144A, the self-cleavage worked out at 1.08.

Regarding A22G G125A, the self-cleavage was determined as 1.9.

Turning to U23A U115C, the self-cleavage was 1.18.

In the case of A24G A67G, the self-cleavage turned out to be 0.45.

A24C U73C: the self-cleavage stood at 1.84.

As for U23C U52A, the self-cleavage is 1.39.

Regarding U23C A69G, the self-cleavage came to 1.2.

Regarding U23A C98G, the self-cleavage was found to be 0.14.

As for U23C G58A, the self-cleavage came to 0.1.

On to A22G U109A, for which the self-cleavage worked out at 1.13.

Consider A22U G105A, for which the self-cleavage amounted to 1.29.

As to A22U U115A, the self-cleavage is 0.63.

For U23A U73C, the self-cleavage amounted to 1.24.

For A24G U85G, the self-cleavage was determined as 0.1.

Regarding A24G U85A, the self-cleavage was 0.13.

Turning to U23C C51U, the self-cleavage is 0.97.

For the variant U23C C51A, the self-cleavage stood at 0.98.

For A24G A141U, the self-cleavage was found to be 1.41.

As for A22U C68U, the self-cleavage is 0.13.

Take A22U G106A: the self-cleavage is 1.55.

Take A22G U100G: the self-cleavage came to 1.75.

For A24G U47C, the self-cleavage was 1.05.

On to A22G G32A, for which the self-cleavage stood at 0.57.

As for A22G G32U, the self-cleavage is 0.6.

With A22U G60U, the self-cleavage came to 0.05.

With U23C A129G, the self-cleavage is 0.

Take A22G U108C: the self-cleavage is 1.16.

Take A24C A57G: the self-cleavage stood at 1.17.

As for U23C U91A, the self-cleavage came to 0.8.

For A22U U73A, the self-cleavage was 1.52.

As for A24C C51U, the self-cleavage turned out to be 1.37.

Take A24G G139U: the self-cleavage was determined as 2.56.

As for A24G G139A, the self-cleavage was 1.3.

For the variant A24G A136G, the self-cleavage was 1.15.

On to A22G U52A, for which the self-cleavage was 1.21.

Turning to U23C A121C, the self-cleavage amounted to 1.9.

On to A22U U132C, for which the self-cleavage turned out to be 1.6.

For the variant U23C U73A, the self-cleavage worked out at 1.28.

Consider U23C U73C, for which the self-cleavage came out at 1.81.

Turning to A24G G27U, the self-cleavage came out at 1.17.

As for U23A U52C, the self-cleavage was 0.75.

Regarding A22G G88A, the self-cleavage was determined as 0.14.

For the variant A22G C110U, the self-cleavage was determined as 0.92.

For the variant A22U U119C, the self-cleavage is 1.52.

Take A22U U119A: the self-cleavage was 1.46.

Turning to A24G U52A, the self-cleavage was 0.79.

In the case of U23A A140G, the self-cleavage came to 1.41.

On to A22G U87C, for which the self-cleavage came to 0.28.

On to A22G U87A, for which the self-cleavage turned out to be 0.22.

Take U23C U29C: the self-cleavage came to 1.06.

Take A22U U109A: the self-cleavage stood at 1.34.

For A22U U109C, the self-cleavage was 0.91.

Take A24G C120U: the self-cleavage came to 1.29.

For U23A A117C, the self-cleavage is 1.6.

Turning to A22G G53A, the self-cleavage came to 1.09.

On to A22G C131U, for which the self-cleavage turned out to be 1.03.

As for A22G C131G, the self-cleavage turned out to be 1.8.

With U23A A107U, the self-cleavage was 1.1.

Consider A22G U46A, for which the self-cleavage is 0.95.

With A22U U29C, the self-cleavage was found to be 1.24.

A22G U29A: the self-cleavage is 1.24.

Regarding A22U U102C, the self-cleavage worked out at 1.06.

Regarding A24G A64U, the self-cleavage turned out to be 0.47.

Consider A22G G36C, for which the self-cleavage came out at 0.37.

Consider U23C A31G, for which the self-cleavage came to 0.85.

As for A24G A57G, the self-cleavage is 1.14.

Regarding A24G A57U, the self-cleavage came to 0.27.

For the variant U23C A42C, the self-cleavage stood at 0.

Regarding U23C A42G, the self-cleavage was 1.18.

Regarding A22U A94U, the self-cleavage came out at 0.17.

For the variant A22U A124G, the self-cleavage was determined as 0.47.

With U23A U47A, the self-cleavage came to 1.91.

U23C A138U: the self-cleavage is 1.84.

With U23C A92G, the self-cleavage is 0.09.

A24G U104C: the self-cleavage turned out to be 2.26.

For A24G U104A, the self-cleavage was found to be 1.24.

For A22U U85C, the self-cleavage turned out to be 0.26.

For A24G U108C, the self-cleavage came to 1.68.

Regarding A24G U108A, the self-cleavage came out at 1.49.

For the variant A22G U115G, the self-cleavage is 1.23.

Consider A22U A78G, for which the self-cleavage turned out to be 1.54.

In the case of A22G U26C, the self-cleavage was determined as 0.83.

Turning to A22G U26A, the self-cleavage amounted to 1.4.

Take A22G U26G: the self-cleavage amounted to 0.75.

Consider A22G C101A, for which the self-cleavage was determined as 1.47.

Regarding U23C A77U, the self-cleavage was 1.36.

On to U23C A77G, for which the self-cleavage was determined as 1.24.

With A22U A117U, the self-cleavage was determined as 1.36.

In the case of A22U A59G, the self-cleavage was determined as 0.07.

In the case of A24G U62A, the self-cleavage was found to be 0.07.

In the case of A24G U62C, the self-cleavage was 0.14.

With A24G U45C, the self-cleavage is 1.12.

For A24G U45G, the self-cleavage was found to be 0.

For U23C C146A, the self-cleavage worked out at 0.

As for A22G G33A, the self-cleavage is 0.65.

Regarding U23C G53A, the self-cleavage is 0.87.

Turning to U23C A50U, the self-cleavage amounted to 1.

For the variant U23C A50G, the self-cleavage was 1.34.

Turning to A24G G33C, the self-cleavage was determined as 0.8.

With U23A U100A, the self-cleavage was 0.86.

For the variant U23A U100C, the self-cleavage came to 1.26.

Take U23A U62A: the self-cleavage stood at 0.05.

As for U23A U62C, the self-cleavage turned out to be 0.

Consider A22G U45C, for which the self-cleavage stood at 1.33.

As for A22U A136G, the self-cleavage was determined as 1.13.

As to A22U A136U, the self-cleavage worked out at 1.04.

As to U23C U102C, the self-cleavage was 1.33.

Consider U23C U102A, for which the self-cleavage was found to be 1.28.

Regarding U23C G55C, the self-cleavage was 0.06.

For A24G A50U, the self-cleavage was determined as 1.55.

For the variant A24C G49A, the self-cleavage was 0.82.

Regarding A24G U46G, the self-cleavage was found to be 1.28.

Take A24G U46C: the self-cleavage is 1.74.

Consider A24G U73A, for which the self-cleavage came to 1.2.

Consider A24G U73C, for which the self-cleavage was 1.68.

Regarding U23C U112C, the self-cleavage is 1.57.

With U23A A59G, the self-cleavage worked out at 0.24.

Consider A24G G86A, for which the self-cleavage worked out at 0.12.

With A22G U81C, the self-cleavage was 1.18.

For A22G U81G, the self-cleavage came to 1.03.

For the variant A24G G35A, the self-cleavage stood at 0.69.

In the case of U23A G54A, the self-cleavage came to 0.96.

On to U23A U96C, for which the self-cleavage was 0.19.

Consider U23A U96A, for which the self-cleavage is 0.08.

Regarding A22U A142G, the self-cleavage is 1.31.

For the variant A22U A142U, the self-cleavage turned out to be 1.48.

U23A A43G: the self-cleavage was 1.27.

As to U23C A43U, the self-cleavage is 1.06.

U23C A43G: the self-cleavage was determined as 1.11.

Turning to A24G U81A, the self-cleavage worked out at 0.47.

As for A24G C123U, the self-cleavage amounted to 0.71.

As to A22U A140G, the self-cleavage was found to be 0.71.

With A22U A121C, the self-cleavage turned out to be 1.27.

Take A22G G83U: the self-cleavage stood at 0.58.

On to A24G G75A, for which the self-cleavage was determined as 1.02.

In the case of U23C C101U, the self-cleavage came to 1.31.

As for U23C G106U, the self-cleavage was determined as 1.04.

Take U23G U102C: the self-cleavage stood at 1.02.

For U23A U108C, the self-cleavage is 1.45.

With U23A U108G, the self-cleavage was 1.59.

For the variant A24G A77G, the self-cleavage came out at 1.41.

In the case of A24G A77C, the self-cleavage was determined as 2.04.

(Values after the RNAGym collection of RNA variant scans (doi:10.7554/elife.90254).)
